Assay: yeast display, Sf9 membrane polyspecificity reagent, FACS + sequencing; frameworks hold sequencing errors
In short: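 Polyreactivity labels are assigned by the sorting gate from which each nanobody was recovered. The gates were low and high (top ~1%), set on anti-HA fluorescence for expression and streptavidin fluorescence for reagent binding. Before sorting, galactose-induced (36–48 hours) yeast display cells were stained for 1 hour at 4 °C with 10% biotinylated, detergent-solubilized Sf9 membrane reagent.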

With “QVQLVESGGGLVQAGGSLRLSCAASGFTFFSNAMGWYIQAPGKERELVAAITSSGGSTYADSVKGRFTISRDNAKNTVYLQMNSLKPEDTAVYYCAADAQAPPGGFKEYDYWGQGTQVTVSS” as the sequence, how does the “polyreactivity (PSR sort gate)” value read?
The value was “low polyreactivity”.

With “QVQLVESGGGLVQAGGSLRLSCAASGFTFFWYTMGWYRQAPGKERELVAAISDTGGSTYYADSVKGRFTISRDNAKNTVYLQMNSLKPEDTAVYYCAAQYVRYGHYYWGQGTQVTVSS” as the sequence, how does the “polyreactivity (PSR sort gate)” value read?
The value was “high polyreactivity”.

With “QVQLVESGGGLVQAGGSLRLSCAASGFTFFYNAMGWYRQAPGKEREFVAAISGRGGRTYYADSVKGRFTISRDNAKNTVYLQMNSLKPEDTAVYYCNADYYPYGEYDYWGQGTQVTVSS” as the sequence, how does the “polyreactivity (PSR sort gate)” value read?
Its value is “high polyreactivity”.

Which “polyreactivity (PSR sort gate)” value does the source give for “QVQLVESGGGLVQAGGSLRLSCAASGFTFFYYAMGWYRQAPGKERELVARISSSGGRTYYADSVKGRFTISRDNAKNTVYLQMNSLKPEDTAVYYCNARYYYYYTRYDYWGQGTQVTVSS” here?
The value was “high polyreactivity”.

With “QVQLVESGGGLVQAGGSLRLSCAASGFTFGAYAMGWYRQAPGKERELVAAITRSSTSTFYADSVKGRFTISRDNAKNTVYLQMNSLKPEDTAVYYCAARGRPRYYSYAGDYWGQGTQVTVSS” as the sequence, how does the “polyreactivity (PSR sort gate)” value read?
The value was “high polyreactivity”.

For “QVQLVESGGGLVQAGGSLRLSCAASGFTFGENAMGWYRQAPGKERELVAAITGGTDTNYADSVKGRFTISRDNAKNTVYLQMNSLKPEDTAVYYCAAYVPHFAPLGGGGGYDYWGEGTQVTVSS”, which “polyreactivity (PSR sort gate)” value is on record?
Its value is “low polyreactivity”.

Which “polyreactivity (PSR sort gate)” value does the source give for “QVQLVESGGGLVQAGGSLRLSCAASGFTFGENAMGWYRQAPWKERELVAAITSGDGTSYADSVKGRFTISRDNAKNTVYLQMNSLKPEVTAVYDCAADGGDELYYSTYDYWGQGTQVTVSS” here?
The value was “low polyreactivity”.

Which “polyreactivity (PSR sort gate)” value does the source give for “QVQLVESGGGLVQAGGSLRLSCAASGFTFGGNAMGWYRQAPGKERELVASITSGGSTNYADSVKGRFTISRDNAKNTVYLQMNSLKPEDTAVYYCAAARTGRARRHFDYWGQGTQVTVSS” here?
Its value is “low polyreactivity”.

Which “polyreactivity (PSR sort gate)” value does the source give for “QVQLVESGGGLVQAGGSLRLSCAASGFTFGGYAMGWYRQAPGKERELVAAISQSGGRTYYADSVKGRFTISRDHAMNTVDLQMISLKPEDTAVYYCAKPSTTYYQRGDYWGQGTQVTVSS” here?
The value was “high polyreactivity”.

Which “polyreactivity (PSR sort gate)” value does the source give for “QVQLVESGGGLVQAGGSLRLSCAASGFTFGGYAMGWYRQAPGKERELVAAITWSGGTTYYADSVKGRFTISRDNAKNTVYLQMNSLKPEDTAVYYCAAESTLPIIDRDDYWGQGSQVTVSS” here?
The value was “low polyreactivity”.

Which “polyreactivity (PSR sort gate)” value does the source give for “QVQLVESGGGLVQAGGSLRLSCAASGFTFGIYAMGWYRQAPGKERELVAAINVSDGSTYYADSVKGRFTISRDNAKNTVYLQMNILKPEDTAVYYCAAYLYVTIYTSYREYDYWGQGTQVTVSS” here?
The value was “low polyreactivity”.

With “QVQLVESGGGLVQAGGSLRLSCAASGFTFGLYAMGWYRQAPGKERELVASITWSGGSTYYADSVKGRFTISRDNAKNTVYLQMNSLKPEDTAVYDCAKRLYLITWAASSADDYWGQGTQVTVSS” as the sequence, how does the “polyreactivity (PSR sort gate)” value read?
Its value is “low polyreactivity”.

Which “polyreactivity (PSR sort gate)” value does the source give for “QVQLVESGGGLVQAGGSLRLSCAASGFTFGLYAMGWYRQAPGKERELVAVISSSGGSTYDADSVKGRFTISRDNAKNTVYLQMNSLKPEETAVYYCAAEWHDYKFDVTYDYWGQGTQVTVSS” here?
Its value is “low polyreactivity”.

Which “polyreactivity (PSR sort gate)” value does the source give for “QVQLVESGGGLVQAGGSLRLSCAASGFTFGNNAMGWYRKAPGKERELVAAISKRGSSTYYADSVKGRFTISRDNAKNTVYLQMNSLKPEDTAVYYCAAEGRRTRYYYWGQGTQVTVSS” here?
Its value is “high polyreactivity”.

For “QVQLVESGGGLVQAGGSLRLSCAASGFTFGNYAMGWYRQAPGKERELVAAISSRGGSTYYADSVKGRFTISRDNAKNSVYLQMNSLKPEDTAVYYCNALRLEVDMGYWGQGTQITVSS”, which “polyreactivity (PSR sort gate)” value is on record?
The value was “high polyreactivity”.

With “QVQLVESGGGLVQAGGSLRLSCAASGFTFGNYAMGWYRQAPGKERELVAAISSRGGSTYYADSVKGRFTISRDNAKNTVYLQMNSLKPEDTAVYYCNALRLEVDMGYWGQGTQITVSS” as the sequence, how does the “polyreactivity (PSR sort gate)” value read?
Its value is “high polyreactivity”.

With “QVQLVESGGGLVQAGGSLRLSCAASGFTFGPKAMGWYRQAPVKERELVAAITFRGDSTYYADSVKVRFTISRDYAKNTVYLQMNCLKPEDTAVYYCATHDRWHHRSLPYEYWGQGTQVTVSS” as the sequence, how does the “polyreactivity (PSR sort gate)” value read?
The value was “low polyreactivity”.

With “QVQLVESGGGLVQAGGSLRLSCAASGFTFGPNTMGWYRQAPGKERELVAAISARGGRTYYADSVKGRFTISRDNAKNTVYLQMNSLKPEDTAVYYCAAPGYVRTGVTYGGYYWGQGTQVTVSS” as the sequence, how does the “polyreactivity (PSR sort gate)” value read?
Its value is “high polyreactivity”.

With “QVQLVESGGGLVQAGGSLRLSCAASGFTFGPYAMGWYRQAPGKERELVAASSQSGGRTSYADSVKGRFTISRDNAKNTVYLPMNSLKPEDTAVYYCAKRAYGYRSIYRMDYWGQGTQVTVSS” as the sequence, how does the “polyreactivity (PSR sort gate)” value read?
Its value is “high polyreactivity”.

With “QVQLVESGGGLVQAGGSLRLSCAASGFTFGRNAMGWYRQAPGKERELVASIDWSGGSTYYADSVKGRFTISRDNAKNTVYLQMNSLIPEDTAVDYCAVGPNSVGNRSYGFDYWGQGTQVTVSS” as the sequence, how does the “polyreactivity (PSR sort gate)” value read?
Its value is “low polyreactivity”.

For “QVQLVESGGGLVQAGGSLRLSCAASGFTFGRNAMGWYRQAPGTERELVARITTGGSTNYADSVKGRFTISRDNAKYTVYLQLNSLKPEDTAVYYCAATYVSLALFWTYGYWGQGTQVTVSS”, which “polyreactivity (PSR sort gate)” value is on record?
Its value is “low polyreactivity”.

For “QVQLVESGGGLVQAGGSLRLSCAASGFTFGRYAMGWYRQAPGKERELVAAITYTDGSTYYADSVKGRFTISRDNAKNTVYLQMNSLKPEDTAVYYCAATTLSFEGGKYWSKYDYWGQGTQVTVSS”, which “polyreactivity (PSR sort gate)” value is on record?
The value was “low polyreactivity”.

For “QVQLVESGGGLVQAGGSLRLSCAASGFTFGRYAMGWYRQAPGKVRELVAGITSGGSTYYADSVKGRFTISRDNAKKTVYLQMNSLKPEDTAVYYGAKASAYGLANDYDYWGQGTQVTVSS”, which “polyreactivity (PSR sort gate)” value is on record?
Its value is “low polyreactivity”.

With “QVQLVESGGGLVQAGGSLRLSCAASGFTFGRYAMGWYRQATGKERELVAAITWSGGSTHYADSVKGRFTISRDNAKNTVYLQMNSLKPEDTAVYYCAVRVIYWSGSQVSVEYYYWGQGTQVTVSS” as the sequence, how does the “polyreactivity (PSR sort gate)” value read?
The value was “low polyreactivity”.

Which “polyreactivity (PSR sort gate)” value does the source give for “QVQLVESGGGLVQAGGSLRLSCAASGFTFGRYDMGWYRQAPGKERELVAAISSGGNTYYADSVKGRFTISRDNAKNTVYLQMNSLKPEDTAVNYCNARTSYYSRFDYWGQGTQVTVSS” here?
Its value is “high polyreactivity”.

For “QVQLVESGGGLVQAGGSLRLSCAASGFTFGSNAMGWYRQAPGKERELVAAINYSGVRTYYADSVKGRFTISRDNAKNTVYLQMNSLKPEDTAVYYCAKKRSKRISFDYWGQGTQVTVSS”, which “polyreactivity (PSR sort gate)” value is on record?
The value was “high polyreactivity”.

Which “polyreactivity (PSR sort gate)” value does the source give for “QVQLVESGGGLVQAGGSLRLSCAASGFTFGSNDMGWYRQAPGKERELVAAINYSGVRTYYADSVKGRFTISRDNAKNTVYLQMNSLKPEDTAVYYCAKKRSKPISFDYWVQGTQVTVSS” here?
Its value is “high polyreactivity”.

With “QVQLVESGGGLVQAGGSLRLSCAASGFTFGSNVMGWYRQAPGKERELVATIRRGGSTNYADSVKGRFTISRDNAKNTVYLQMNSLKPEDTAVYYCATGYAVYLSRRDYWGQGTQVTVSS” as the sequence, how does the “polyreactivity (PSR sort gate)” value read?
The value was “high polyreactivity”.

With “QVQLVESGGGLVQAGGSLRLSCAASGFTFGSYAMGWYRQAPGKERELVAAISRGGTTYYADSVKGRFTVSRDNAKNTVYLQMNSLKPEDTAVYYCATALIVRGPSRYEYWGQGTQVTVSS” as the sequence, how does the “polyreactivity (PSR sort gate)” value read?
Its value is “high polyreactivity”.

Which “polyreactivity (PSR sort gate)” value does the source give for “QVQLVESGGGLVQAGGSLRLSCAASGFTFGSYAMGWYRQAPGTERELVADISRRGGRTYYADSVKGRFTISRDNAKNTVYLQMNSLKPEDTAVYYCNAVSYVYFYSSSYDYWGQGTQVTVSS” here?
Its value is “high polyreactivity”.

With “QVQLVESGGGLVQAGGSLRLSCAASGFTFGTNAMGWDRQAPGKERELVAAISGSGGSTYYADSVKGRFTISRDNAMNTVYLQMNSLKPEDTAVYYCNKGRPRKVYSEGFGYWGQGTQVTVSS” as the sequence, how does the “polyreactivity (PSR sort gate)” value read?
The value was “high polyreactivity”.

For “QVQLVESGGGLVQAGGSLRLSCAASGFTFGVYAMGWYRQAPGKERELVAAISTTVGSTYYADSVKGRFTISRDNAKNTVYLQMNSLKPEDSAVYYCAAEYTGYINYYIYEYWGQGTQVTVSS”, which “polyreactivity (PSR sort gate)” value is on record?
The value was “low polyreactivity”.

Which “polyreactivity (PSR sort gate)” value does the source give for “QVQLVESGGGLVQAGGSLRLSCAASGFTFGVYTMGWYRQAPGKERELVAAITSGGSTHYADSVKGRFTISRDNAKNTVYLQMNSLKPEDTAVYYCAARVRPRPQRIYGYWGQGTQVTVSS” here?
The value was “high polyreactivity”.

Which “polyreactivity (PSR sort gate)” value does the source give for “QVQLVESGGGLVQAGGSLRLSCAASGFTFGWYAMGWYRQAPGKDWEFVAAISRSGGSTYYADSVKGRFTISRDNAKNTVYLQMNSLKPEDTAVYYCAAYIIGDTHAEYDYWGQGTQVTVSS” here?
The value was “high polyreactivity”.

Which “polyreactivity (PSR sort gate)” value does the source give for “QVQLVESGGGLVQAGGSLRLSCAASGFTFGWYAMGWYRQAPGKERELVAAIDESGGTTYYADSVKGRFTISRDNAKNTVYLQMNSLKPEDTAVYYCAADKKTPYEDDYWGQGTQVTVSS” here?
The value was “low polyreactivity”.

With “QVQLVESGGGLVQAGGSLRLSCAASGFTFGWYDMGWYRKATGKERELVASISWSGSSTYYADSVKGRFTISRDNAKNTVYLQMNSLKPEDTAVYYCATPYWRRYDYWGQGTQVTVSS” as the sequence, how does the “polyreactivity (PSR sort gate)” value read?
Its value is “high polyreactivity”.

With “QVQLVESGGGLVQAGGSLRLSCAASGFTFGYNAMGWYRQAPGKEREFVAAITKSGDSTYYADSVKGRFTISRDNAKNSVYLQMNSLKPEDTAVYYCAAQYRQRRHDYWGQGTQVTVSS” as the sequence, how does the “polyreactivity (PSR sort gate)” value read?
The value was “high polyreactivity”.

With “QVQLVESGGGLVQAGGSLRLSCAASGFTFGYYAMGCYRQAPGKERELVAAISWSGGSTYYADSVKGRFTISRDNAKNTVYLQMNSLKPEDSAVYYCAAQSYLGRTWLDYWGQGTQVTVSS” as the sequence, how does the “polyreactivity (PSR sort gate)” value read?
The value was “high polyreactivity”.

For “QVQLVESGGGLVQAGGSLRLSCAASGFTFGYYAMGWYRQAPGKERELVAAINYSGGSTYYADSVKGRFTISRDNEKNTVYLQMNSLKPEDTAVYYCAAAVLRTYVPDLYDYWGQGTQVTVSS”, which “polyreactivity (PSR sort gate)” value is on record?
Its value is “high polyreactivity”.

For “QVQLVESGGGLVQAGGSLRLSCAASGFTFGYYAMGWYRQAPGKERELVARISDGGSTNYADSVKGRFTISRDNAKNTVYLQMNSLKQEDTAVYYCAADDTRGREEYDYWGQGTQVTVSS”, which “polyreactivity (PSR sort gate)” value is on record?
Its value is “high polyreactivity”.

Which “polyreactivity (PSR sort gate)” value does the source give for “QVQLVESGGGLVQAGGSLRLSCAASGFTFGYYAMGWYRQAPGKERELVASISSRGGSTNYADSVKGRFTISRDNAKNTVYLQMNSLKPEDTAVYYCNADYYYPLRSNKYYYWGQGTQVTVSS” here?
Its value is “high polyreactivity”.
